In assay [1] the target is T1, SARS-CoV-2 spike RBD (WT) (Severe acute respiratory syndrome …, UniProt P0DTC2). The experiment in a line: BLI. In general terms: Biolayer interferometry detects binding as a change in optical thickness at a sensor tip.
Assay [2] has as its target T1, SARS-CoV-2 spike RBD (WT). The experiment in a line: ELISA. Also noted: unit not given here. A general note: In an ELISA, binding on a coated surface is turned into a signal by an enzyme label.
The target in assay [3] is T1, SARS-CoV-2 spike RBD (WT). Put plainly: BLI. This is another data set of the same source.

Where two headings read alike, the source gives them in different places.

B1: D051 (antibody, V domains shown)
VH: QVQLQQWGAGLLKPSETLSLTCAVYGGSFSDYYWTWIRQAPGKGLEWIGEINHSGSTNYNPSLKSRVTISVDTSKSQFSLSLTSVTAADTAVYYCARGRRYCNSLSCPYYFYFYMDVWDKGTTVTVSS
VL: DIQMTQSPSSVSASVGDRVTITCRASQGISSWLAWYQQKPGKAPKLLIYAASSLQSGVPSRFSGSGSGTDFTLTISSLQSEDFATYYCQQANSFPRTFGQGTRLEIK
Broadly, the Kd is the constant that tells how readily two partners part at equilibrium. As for B1, the Kd in assay [1] stood at 2.24 µM. This molecule also came in with a binding score in assay [2] above 10000.

B2: C2736 (antibody, V domains shown)
VH: QVQLVQSGAEVKKPGSSVKVSCKASGGTFSSYAISWVRQAPGQGLEWMGGIIPIFGTANYAQKFQGRVTITADESTSTAYMELSSLRSEDTAVYYCASCRYYYDSSGYAQPEDYFDYWGQGTLVTVSS
VL: QSVLTQPPSVSGAPGQRVTISCTGSSSNIGAGYDVHWYQQLPGTAPKLLIYGNSNRPSGVPDRFSGSKSGTSASLAITGLQAEDEADYYCQSYDSSLSGSHVVFGGGTKLTVL
Turning to B2, in assay [1], the Kd stood at 0.00614 µM. This molecule also gave a binding score in assay [2] of 79.9.

B3: A47 (antibody, V domains shown)
VH: HVQLQQPGAELVKPGASVKVSCKASGYTFTSFWMHWVKQRPGQGLEWIGGIHPSDSDTNYNQKFKGKATLTVNKSSSTAYMQLSSLTSEDSAVYYCAIGDECANWGQGTLVTVSA
VL: DIVLTQSPASLAVSLGQRATISCRASKSVSTSGYSYMHWYQQKPGQPPKLLIYLASNLESGVPARFSGSGSGTDFTLNIHPVEEEDAATYYCHHSRELPFTFGSGTKLEIK
Turning to B3, in assay [3], binding was put at a Kd of 0.142 µM.

B4: A24 (antibody, V domains shown)
VH: DVQLQESGPGLVKPSQSLSLTCSVTGYSITSGYYWNWIRQFPGNKMEWMGYITYDGRNTYNPSPKNRLSITRDTSKNQFFLKLNSVTTEDTATYYCARCHYYGSSYAMDYWGQGTSVTVSS
VL: DIVMTQSHKFMSTSVGDRVSITCKASQDVSTAVAWYRQKPGQSPKLLIYWASTRHTGVPDRFTGSGSGTDYTLTISSVQPEDLALYYCQQHYTTPLTFGAGTKLELK
In assay [3], B4 registered a Kd of 0.205 µM.

B5: B22 (antibody, V domains shown)
VH: EVKLEESGGGLVQPGGSMKLSCAASGFTFSDAWMDWVRQSPEKGLEWVAEIRNKANNHAIYYAESVKGRFTISRDDSKSSVYLQMNSLRAEDTGIYYCILFLTGHFDYWGQGTTLTVSS
VL: DIVMTQSQKFMSTSVGDRVSITCKASQNVRTAVVWYQEKPGQSPKTLIYLASNRHTGVPDRFTGSGSGTDFTLTISNVQSEDLADYFCLQHWNYPLTFGSGTKLEIK
In turn, B5 had a Kd in assay [3] of 0.269 µM.

B6: B27 (antibody, V domains shown)
VH: EVKLEESGGGLVQPGGSMKLSCAASGFTFSDAWMDWVRQSPEKGLEWVAEIRNKANNHATYYAESVKGRFTISRDDSKSSVYLQMNSLRAEDTGIYYCTNYKYYAMDYWGQGTSVTVSS
VL: QIVLTQSPAIMSASPGEKVTMTCSASSSVSYMYWYQQKPGSSPRLLIYDTSNLASGVPVRFSGSGSGTSYSLTISRMEAEDAATYYCQQWSSYPLTFGAGTKLELK
The molecule B6 gave a Kd in assay [3] of 0.12 µM.

B7: D164 (antibody, V domains shown)
VH: QVQLVQSGAEVKKPGASVKVSCKASGYTFTSYYMHWVRQAPGQGLEWMGIINPSGGSTSYAQKFQGRVTMTRDTSTSTVYMELSSLRSEDTAVYYCARGGIVPAATENFDYWGQGTLVTVSS
VL: EIVLTQSPATLSLSPGERATLSCRASQSVSSYLAWYQQKPGQAPRLLIYDASNRATGIPARFSGSGSGTDFTLTISSLEPEDFAVYYCQQRSNWPITFGQGTRLEIK
As for B7, the dissociation constant (Kd) in assay [1] was determined as 0.194 µM. The binding score in assay [2] amounted to 63.2.

B8: C2724 (antibody, V domains shown)
VH: not shown
VL: EIVLTQSPATLSLSPGERATLSCRASQSVSSYLAWYQQKPGQAPRLLIYDASNRATGIPARFSGSGSGTDFTLTISSLEPEDFAVYYCQQRSNCPLTFGGGTKVEIK
On to B8, for which, in assay [1], binding was put at a Kd of 0.174 µM. Besides, in assay [2], the binding score stood at 604.

B9: D046 (antibody, V domains shown)
VH: EVQLVESGGGLVQPGGSLRLSCAASGFTFSSYWMHWVRQAPGKGLVWVSRINSDGSSTSYADSVKGRFTISRDNAKNTLYLQMNSLRAEDTAVYYCARGVPHDYGDYESVILAGYYYYYYGMDVWGQGTTVTVSS
VL: not shown
With B9, the Kd in assay [1] was determined as 0.0424 µM. The binding score in assay [2] came to 6.02.

B10: D049 (antibody, V domains shown)
VH: EVQLVQSGAEVKKPGESLKISCKGSGYSFISHWIGWVRQMPGKGLEWMGIIYPGDSDTRNSPSFQGQVTISADKSISTAYLQWSSLKASDTAMYYCARLLGSNYEVGFDYWGQGTLVTVSS
VL: not shown
Molecule B10 registered a Kd in assay [1] of 0.00969 µM. Also, the binding score in assay [2] worked out at 6.28.

B11: C2721 (antibody, V domains shown)
VH: EVQLVESGGGLIQPGGSLRLSCAASGFTVSSNYMSWVRQAPGKGLEWVSVIYSGGSTYYADSVKGRFTISRDNSKNTLYLQMNSLRAEDTAVYYCARDMGGDAFDIWGQGTMVTVSS
VL: DIQLTQSPSFLSASVGDRVTITCRASQGISSYLAWYQQKPGKAPKLLIYAASTLQSGVPSRFSGSGSGTEFTLTISSLQPEDFATYYCQQLNSYPFFGGGTKVEIK
As to B11, in assay [1], binding was characterised by a dissociation constant (Kd) of 0.0985 µM. This molecule also gave a binding score in assay [2] of 174.

B12: C2719 (antibody, V domains shown)
VH: EVQLVESGGGLIQPGGSLRLSCAASGFTVSSNYMSWVRQAPGKGLEWVSVIYSGGSTYYADSVKGRFTISRDNSKNTLYLQMNSLRAEDTAVYYCARDLGPYGMDVWGQGTTVTVSS
VL: DIQLTQSPSFLSASVGDRVTITCRASQGISSYLAWYQQKPGKAPKLLIYAASTLQSGVPSRFSGSGSGTEFTLTISSLQPEDFATYYCQQLNSYPPEIGQGTRLEIK
As for B12, binding in assay [1] was characterised by a dissociation constant (Kd) of 0.127 µM. Further, in assay [2], the binding score came to 59.3.

B13: D064 (antibody, V domains shown)
VH: EVQLVQSGAEVKKPGESLKISCKGSGYSFTSYWIGWVRQMPGKGLEWMGIIYPGDSDTRYSPSFQGQVTISADKSISTAYLQWSSLKASDTAMYYCASHAGGYDFDYYYMDVWGKGTTVTVSS
VL: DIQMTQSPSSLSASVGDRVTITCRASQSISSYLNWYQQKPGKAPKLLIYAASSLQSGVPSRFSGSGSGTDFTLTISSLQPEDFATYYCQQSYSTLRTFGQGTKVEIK
B13 returned an equilibrium dissociation constant (Kd) in assay [1] of 0.344 µM. Also, the binding score in assay [2] stood at 1230.

B14: B32 (antibody, V domains shown)
VH: QVQLQQSGPELVKPGASVKISCKASGYAFSSSWMNWVKQRPGKGLEWIGRIYPGDGDTNYNGKFKGKATLTADKSSSTAYMQLSSLTSEDSAVYFCARELDPPWGQGTTLTVSS
VL: DILMTQSPSSMSVSLGDTVSITCHASQGISSNIGWLQQKPGKSFKGLIYHGTNLEDGVPSRFCGSGSGADYSLTISSLESEDFADYYCVQYAQFPFTFGSGTKLEIK
For the molecule B14, in assay [3], the dissociation constant Kd amounted to 0.0958 µM.

B15: C2699 (antibody, V domains shown)
VH: QLQLQESGPGLVKPSETLSLTCTVSRGSISSSSYYWGWIRQPPGKGLEWIGSIYYSGNTYYNPSLKSRVTISVDTSNNQFFLKLSSVTAADTAVYYCARRPNSGWGYWYFDLWGRGTLVTVSS
VL: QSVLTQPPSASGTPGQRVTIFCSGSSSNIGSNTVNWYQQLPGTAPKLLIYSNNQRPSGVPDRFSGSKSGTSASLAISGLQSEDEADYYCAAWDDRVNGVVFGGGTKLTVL
As for B15, the dissociation constant Kd in assay [1] stood at 0.074 µM. In assay [2], this molecule had a binding score of 334.

B16: B05 (antibody, V domains shown)
VH: QVQLKQSGAELVRPGASVKLSCKASGYTFTDYYINWVKQRPGQGLEWIARIYPGSGNPYYNEKFKGKATLTAEKSSSTAYMQLSSLTSEDSAVYFCARRGTLLYAFAYWGQGTLVTVSA
VL: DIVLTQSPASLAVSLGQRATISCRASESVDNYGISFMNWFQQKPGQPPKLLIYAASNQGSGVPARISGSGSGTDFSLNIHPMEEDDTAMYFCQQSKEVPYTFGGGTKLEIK
Take B16: the equilibrium dissociation constant (Kd) in assay [3] was 0.0685 µM.

B17: D159 (antibody, V domains shown)
VH: QVQLVESGGGVVQPGGSLRLSCAASGFTFSTYGMHWVRQAPGKGLEWVAFIQYDGSNKYYADSVKGRFTISRDNSKNTLCLQMNTLRAEDTAVYYCAKDLYYYGSGSYFDYWGQGTLVTVSS
VL: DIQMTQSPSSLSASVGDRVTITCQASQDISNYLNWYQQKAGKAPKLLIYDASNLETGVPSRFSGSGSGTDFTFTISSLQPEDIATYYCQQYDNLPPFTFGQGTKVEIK
B17: the Kd in assay [1] is 0.0169 µM. Besides, in assay [2], the binding score was determined as 59.9.

B18: D147 (antibody, V domains shown)
VH: QVQLVESGGGVVQPGRSLRLSCAASGFTFSSYGMYWVRQAPGKGLEWVAVISYDGSNKYYADSVKGRFTISRDNSKNTLYLQMNSLRAEDTAVYYCAKGGGEYCSGGNCYSSYFDYWGQGTLVTVSS
VL: not shown
The molecule B18 gave a Kd in assay [1] of 0.0942 µM. Also, the binding score in assay [2] was 7.89.

B19: C2727 (antibody, V domains shown)
VH: EVQLVESGGGLIQPGGSLRLSCAASGFTVSSNYMSWVRQAPGKGLEWVSVIYSGGSTYYADSVKGRFTISRDNSKNTLYLQMNSLRAEDTAVYYCAREGPQKTDWGQGTLVTVSS
VL: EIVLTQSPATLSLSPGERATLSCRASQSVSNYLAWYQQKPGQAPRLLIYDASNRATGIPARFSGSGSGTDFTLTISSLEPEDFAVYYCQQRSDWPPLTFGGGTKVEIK
The molecule B19 yielded a Kd in assay [1] of 0.0996 µM. Further, in assay [2], the binding score came out at 20.

B20: B33 (antibody, V domains shown)
VH: EVQLQQSGPELVKPGTSVKISCKASGYSFTGYYMNWVKQSPEKSLEWIGEINPSTGGTTYNQKFKAKATLTVDKSSSTAYMQLKSLTSEDSAVYYCARADYWGQGTTLTVSS
VL: DIVLTQSPASLAVSLGQRATISCRASESVEYYVTSLMQWYQQKPGQPPKLLIYAASNVESGVPARFSGSGSGTDFSLNIHPVEEDDIAMYFCQQSREVPYTFGGGTKLEIK
B20: in assay [3], the Kd stood at 0.0727 µM.

B21: B03 (antibody, V domains shown)
VH: EVQLQQSGPELVKPGASVKISCKASGYSFTGYYMNWVKQSPEKSLEWIGEINPSTGGATYNQKFKAKATLTVDKSSSTASMQLKSLTSEDSAVYYCARAAGDYWGQGTTLTVSS
VL: DIVLTQSPASLAVSLGQRATISCRASESVEYYGTSLMQWYQQKPGQPPKLLIYAASNVESGVPARFSGSGSGTDFSLNIHPVEEDDIAMYFCQQSRKVPWTFGGGTKLEIK
B21 registered a dissociation constant (Kd) in assay [3] of 0.0526 µM.

B22: A09 (antibody, V domains shown)
VH: QVQLQQPGAELVKPGASVKVSCKASGYTFTSYWMHWVKQRPGQGLEWIGRIHPSDSDTNYNQKFKGKATLTVDKSSSTAYMQLSSLTSEDSAVYSCARGMDYWGQGTSVTVSS
VL: DVVLTQTPLSLPVNIGDQASISCKSTKSLLNSVGFTYLDWYLQKPGQSPQLLIYLVSNRFSGVPDRFSGSGSGTDFTLKISRVEAEDLGVYYCFQSNYLPYTFGGGTKLEIK
For the molecule B22, the affinity in assay [3], expressed as Kd, was 0.0302 µM.

B23: C2748 (antibody, V domains shown)
VH: QVQLVQSGAEVKKPGSSVKVSCKASGGTFTNYAISWVRQAPGQGLEWMGGIIPIFGTEDYAQRFQGRVTITADESTSTAYMELTSLTSEDTAVYFCARGLPLTVTTRRRFNFFDYWGQGTLVTVSS
VL: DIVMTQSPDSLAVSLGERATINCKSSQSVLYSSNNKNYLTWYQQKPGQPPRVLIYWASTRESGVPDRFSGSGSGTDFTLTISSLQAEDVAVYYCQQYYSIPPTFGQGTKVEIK
In turn, B23 gave a Kd in assay [1] of 0.0024 µM. The binding score in assay [2] was found to be 11.7.

(Values after PMC9876794 (2022).)
